System: T1, CC(C)CCC[C@@H](C)[C@H]1CC[C@H]2[C@@H]3CC=C4C[C@@H](O)CC[C@]4(C)[C@H]3CC[C@]12C
T1 construct: Met-Ala (from the NcoI cloning site) in front of Arg25 (N); made in house; host or cells: E. coli TOPP3 carrying pJL/H7α1.5 (ATCC 69401)
Experiment: Reconstitution assay of cholesterol 7α-hydroxylase activity at different concentrations of cholesterol (Lineweaver-Burke plot)
Format: biochemical, human
Conditions: other: purified truncated enzyme reconstituted with NADPH-cytochrome P450 reductase and phospholipid, 1 mM NADPH, 37° C., 20 minutes, pH 7.4
Method: FIG. 10 illustrates a Lineweaver-Burke plot of activities of truncated human and truncated rat cholesterol 7α-hydroxylase in E. coli. Truncated CYP7 activity was measured using a reconstitution assay, such as that described in Example 10, at different concentrations of cholesterol, as indicated. Linear regression was used to draw the line.
The truncated enzyme was purified from recombinant bacteria. Purification methodology is described by Li and Chiang, J. Biol. Chem. 266 (29): 19186 (1991), the contents of which are expressly incorporated by reference herein in its entirety. The activity of CYP7, in both the presence and absence of the compound, is measured as described by Chiang, Meth. Enzym. 206: 483 (1991), the contents of which is expressly incorporated by reference herein in its entirety. […]
The Km and Vmax for cholesterol have been determined in comparison with the truncated, bacterially expressed rat CYP7 enzyme (FIG. 10). […]

“truncated human cholesterol 7α-hydroxylase (CYP7), amino acids 1 to 24 of the membrane anchor region deleted, SEQ ID NO:5, expressed in E. coli TOPP3-pJL/H7α1.5 (Homo sapiens)” was tested, and the Km was 5.85 µM and the Vmax was 0.13 nmol/min.
